From publication PMC9482650, “Quantitative fragmentomics allow affinity mapping of interactomes” (Nature Communications, 2022)

How the values were obtained:
Test in all cases: holdup assay
Design in all cases: key: below the threshold = too weak to quantify, mostly under pKd 3.1 to 4
Settings in all cases: plain residues with an end cap or a label only (N-terminal biotin on a linker: ttds)
MAGI1_4, Q96QZ7 = target: MAGI1_4, Q96QZ7
NHERF1_2, O14745 = target: T1, NHERF1_2, O14745
T1 sequence (O14745 149-244, limits assumed, looked up): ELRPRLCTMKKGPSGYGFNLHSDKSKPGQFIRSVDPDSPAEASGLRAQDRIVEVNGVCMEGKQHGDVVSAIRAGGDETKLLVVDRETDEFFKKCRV

CNKSR1, Q969H4 = target: T2, CNKSR1, Q969H4
T2 sequence (Q969H4 191-295, limits assumed, looked up): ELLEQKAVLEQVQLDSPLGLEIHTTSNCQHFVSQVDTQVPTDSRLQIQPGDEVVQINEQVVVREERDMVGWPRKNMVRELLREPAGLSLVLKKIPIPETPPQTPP

PDZD8, Q8NEN9 = target: T3, PDZD8, Q8NEN9
T3 sequence (Q8NEN9 361-459, limits assumed, looked up): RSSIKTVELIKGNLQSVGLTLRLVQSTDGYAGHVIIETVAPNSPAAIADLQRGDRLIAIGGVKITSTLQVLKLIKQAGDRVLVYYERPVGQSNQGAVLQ

USH1C_1, Q9Y6N9 = target: T4, USH1C_1, Q9Y6N9
T4 sequence (Q9Y6N9 82-179, limits assumed, looked up): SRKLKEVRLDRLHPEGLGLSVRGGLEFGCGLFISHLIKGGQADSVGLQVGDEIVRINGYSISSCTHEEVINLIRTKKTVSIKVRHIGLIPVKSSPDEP

RGS3, P49796-9 = target: RGS3, P49796-9
SHROOM2, Q13796 = target: T5, SHROOM2, Q13796
T5 sequence (Q13796 21-118, limits assumed, looked up): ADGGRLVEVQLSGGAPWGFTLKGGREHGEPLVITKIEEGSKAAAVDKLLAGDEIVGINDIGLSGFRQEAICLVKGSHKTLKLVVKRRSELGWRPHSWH

GIPC1, O14908 = target: T6, GIPC1, O14908
T6 sequence (O14908 128-223, limits assumed, looked up): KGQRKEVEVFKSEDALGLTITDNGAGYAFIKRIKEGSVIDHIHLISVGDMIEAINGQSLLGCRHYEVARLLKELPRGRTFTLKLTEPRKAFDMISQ

MAGI2_1, Q86UL8 = target: T7, MAGI2_1, Q86UL8
T7 sequence (Q86UL8 12-111, limits assumed, looked up): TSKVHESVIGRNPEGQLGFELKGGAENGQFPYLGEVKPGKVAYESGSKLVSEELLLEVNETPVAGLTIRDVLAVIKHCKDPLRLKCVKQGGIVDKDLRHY

GRIP2_2, Q9C0E4 = target: GRIP2_2, Q9C0E4
RGS12, O14924 = target: T8, RGS12, O14924
T8 sequence (O14924 17-108, limits assumed, looked up): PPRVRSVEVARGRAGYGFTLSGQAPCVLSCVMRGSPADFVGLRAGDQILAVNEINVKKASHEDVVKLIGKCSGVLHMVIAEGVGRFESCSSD

MPDZ_7, O75970 = target: T9, MPDZ_7, O75970
T9 sequence (O75970 1146-1253, limits assumed, looked up): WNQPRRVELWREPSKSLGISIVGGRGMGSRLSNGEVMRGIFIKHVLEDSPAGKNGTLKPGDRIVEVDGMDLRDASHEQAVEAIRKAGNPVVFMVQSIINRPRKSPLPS

USH1C_2, Q9Y6N9 = target: T10, USH1C_2, Q9Y6N9
T10 sequence (Q9Y6N9 206-303, limits assumed, looked up): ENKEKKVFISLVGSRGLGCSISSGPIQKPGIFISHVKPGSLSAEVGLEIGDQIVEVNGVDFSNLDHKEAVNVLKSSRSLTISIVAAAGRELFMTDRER

PDZD9, Q8IXQ8 = target: PDZD9, Q8IXQ8
RIMS1, Q86UR5 = target: RIMS1, Q86UR5
PDZD2_4, O15018 = target: T11, PDZD2_4, O15018
T11 sequence (O15018 723-823, limits assumed, looked up): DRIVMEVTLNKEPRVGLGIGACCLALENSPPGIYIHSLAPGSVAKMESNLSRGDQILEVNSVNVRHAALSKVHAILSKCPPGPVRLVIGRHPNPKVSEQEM

TJP3_1, O95049 = target: T12, TJP3_1, O95049
T12 sequence (O95049 6-103, limits assumed, looked up): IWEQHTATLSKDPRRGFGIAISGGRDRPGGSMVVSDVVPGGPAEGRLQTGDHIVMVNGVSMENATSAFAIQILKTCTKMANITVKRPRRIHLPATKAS

SHROOM3, Q8TF72 = target: T13, SHROOM3, Q8TF72
T13 sequence (Q8TF72 20-120, limits assumed, looked up): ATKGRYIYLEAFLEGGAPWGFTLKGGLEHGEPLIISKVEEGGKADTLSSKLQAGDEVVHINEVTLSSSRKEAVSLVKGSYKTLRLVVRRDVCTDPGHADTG

PTPN4, P29074 = target: T14, PTPN4, P29074
T14 sequence (P29074 512-599, limits assumed, looked up): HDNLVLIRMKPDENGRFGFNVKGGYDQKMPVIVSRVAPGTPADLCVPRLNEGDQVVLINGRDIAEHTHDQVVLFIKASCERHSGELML

TJP3_2, O95049 = target: T15, TJP3_2, O95049
T15 sequence (O95049 190-282, limits assumed, looked up): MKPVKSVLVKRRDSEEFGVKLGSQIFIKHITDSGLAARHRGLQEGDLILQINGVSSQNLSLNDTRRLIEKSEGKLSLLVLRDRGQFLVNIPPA

MAGIX, Q9H6Y5 = target: MAGIX, Q9H6Y5
MAGI1_6, Q96QZ7 = target: MAGI1_6, Q96QZ7
Chain of MAGI1_6, Q96QZ7 (Q96QZ7 1146-1238): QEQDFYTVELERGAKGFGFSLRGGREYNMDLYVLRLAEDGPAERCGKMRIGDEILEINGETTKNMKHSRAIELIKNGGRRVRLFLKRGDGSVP

Chain of GRIP2_2, Q9C0E4 (Q9C0E4 137-245): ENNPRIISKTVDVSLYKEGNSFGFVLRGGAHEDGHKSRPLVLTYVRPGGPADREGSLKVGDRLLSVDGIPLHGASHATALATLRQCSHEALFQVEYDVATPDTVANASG
Chain of MAGIX, Q9H6Y5 (Q9H6Y5 118-211): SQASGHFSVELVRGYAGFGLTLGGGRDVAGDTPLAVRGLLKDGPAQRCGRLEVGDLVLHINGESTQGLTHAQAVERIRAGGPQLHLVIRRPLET
Chain of PDZD9, Q8IXQ8 (Q8IXQ8 23-120): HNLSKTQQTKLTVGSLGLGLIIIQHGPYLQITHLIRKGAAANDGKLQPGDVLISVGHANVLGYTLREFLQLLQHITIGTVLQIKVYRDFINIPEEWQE
Chain of RGS3, P49796-9 (P49796 other isoform, or with tags, fused parts or gaps): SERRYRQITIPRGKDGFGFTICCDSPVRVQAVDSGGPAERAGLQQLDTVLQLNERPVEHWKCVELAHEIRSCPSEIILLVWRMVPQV
Chain of MAGI1_4, Q96QZ7 (Q96QZ7 other isoform, or with tags, fused parts or gaps): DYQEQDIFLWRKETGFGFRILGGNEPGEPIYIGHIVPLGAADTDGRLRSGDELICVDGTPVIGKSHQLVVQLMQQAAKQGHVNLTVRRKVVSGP
Chain of RIMS1, Q86UR5 (Q86UR5 584-692): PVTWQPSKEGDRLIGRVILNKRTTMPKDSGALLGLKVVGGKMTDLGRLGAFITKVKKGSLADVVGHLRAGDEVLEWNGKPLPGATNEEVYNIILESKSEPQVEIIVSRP

B1: RALBP1, Q15311 (peptide)
chain: PSRDRKETSI
pKd (MAGI1_4, Q96QZ7): below the threshold
pKd (NHERF1_2, O14745): below the threshold
pKd (CNKSR1, Q969H4): below the threshold
pKd (PDZD8, Q8NEN9): below the threshold
pKd (USH1C_1, Q9Y6N9): below the threshold
pKd (RGS3, P49796-9): below the threshold
pKd (SHROOM2, Q13796): below the threshold
pKd (GIPC1, O14908): 3.78
pKd (MAGI2_1, Q86UL8): 3.74
pKd (GRIP2_2, Q9C0E4): 4.25
pKd (RGS12, O14924): below the threshold
pKd (MPDZ_7, O75970): below the threshold
pKd (USH1C_2, Q9Y6N9): below the threshold
pKd (PDZD9, Q8IXQ8): below the threshold
pKd (RIMS1, Q86UR5): below the threshold
pKd (PDZD2_4, O15018): below the threshold
pKd (TJP3_1, O95049): below the threshold
pKd (SHROOM3, Q8TF72): below the threshold
pKd (PTPN4, P29074): 3.83
pKd (TJP3_2, O95049): below the threshold
pKd (MAGIX, Q9H6Y5): below the threshold
pKd (MAGI1_6, Q96QZ7): below the threshold
